{"source": "the supplement of paper PMC9112550", "about": "“Optimization of the antimicrobial peptide Bac7 by deep mutational scanning” (BMC Biology, 2022);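 further: peptides expressed intracellularly from a pBAD plasmid library in pooled LB shake-flask culture, induced with 0.3% L-arabinose, DNA abundance read by NGS, three biological replicates, DESeq2 with apeglm shrinkage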"}
{"tested_on": "Escherichia coli TOP10", "experiment": "shrunken log2 fold change of peptide-encoding DNA abundance (4.5 h post-induction vs induction); higher = less antimicrobial activity (less host growth inhibition)", "details": "time post-induction: 4.5 h; library: site-saturation at positions 5, 18, 19, 20"}
{"sequence": "RRIRNRPPRLPRPRPRPLPYPRP", "shrunken log2 fold change": -0.542}
{"sequence": "RRIRGRPPRLPRPRPRPCKWPRP", "shrunken log2 fold change": -0.075}
{"sequence": "RRIRWRPPRLPRPRPRPVVPPRP", "shrunken log2 fold change": 0.242}
{"sequence": "RRIRSRPPRLPRPRPRPRIVPRP", "shrunken log2 fold change": -0.174}
{"sequence": "RRIRGRPPRLPRPRPRPQFGPRP", "shrunken log2 fold change": 0.0436}
{"sequence": "RRIRTRPPRLPRPRPRPNLDPRP", "shrunken log2 fold change": 0.0338}
{"sequence": "RRIRYRPPRLPRPRPRPYNTPRP", "shrunken log2 fold change": -1.88}
{"sequence": "RRIRWRPPRLPRPRPRPYEEPRP", "shrunken log2 fold change": -0.334}
{"sequence": "RRIRYRPPRLPRPRPRPGTPPRP", "shrunken log2 fold change": 1.16}
{"sequence": "RRIRNRPPRLPRPRPRPLWHPRP", "shrunken log2 fold change": -0.185}
{"sequence": "RRIRYRPPRLPRPRPRPTFEPRP", "shrunken log2 fold change": -0.274}
{"sequence": "RRIRLRPPRLPRPRPRPDGGPRP", "shrunken log2 fold change": -0.000524}
{"sequence": "RRIRDRPPRLPRPRPRPPEIPRP", "shrunken log2 fold change": 0.487}
{"sequence": "RRIRVRPPRLPRPRPRPKACPRP", "shrunken log2 fold change": 0.153}
{"sequence": "RRIRWRPPRLPRPRPRPFGKPRP", "shrunken log2 fold change": -0.578}
{"sequence": "RRIRERPPRLPRPRPRPCIHPRP", "shrunken log2 fold change": -0.229}
{"sequence": "RRIRNRPPRLPRPRPRPHHEPRP", "shrunken log2 fold change": -0.534}
{"sequence": "RRIRYRPPRLPRPRPRPSSKPRP", "shrunken log2 fold change": -1}
{"sequence": "RRIRRRPPRLPRPRPRPLPLPRP", "shrunken log2 fold change": 0.0912}
{"sequence": "RRIRDRPPRLPRPRPRPDDNPRP", "shrunken log2 fold change": 0.153}
{"sequence": "RRIRDRPPRLPRPRPRPGTVPRP", "shrunken log2 fold change": 0.118}
{"sequence": "RRIRNRPPRLPRPRPRPPWTPRP", "shrunken log2 fold change": 0.272}
{"sequence": "RRIRGRPPRLPRPRPRPKSKPRP", "shrunken log2 fold change": 0.611}
{"sequence": "RRIRRRPPRLPRPRPRPKEHPRP", "shrunken log2 fold change": 0.345}
{"sequence": "RRIRIRPPRLPRPRPRPKWRPRP", "shrunken log2 fold change": 0.188}
{"sequence": "RRIRFRPPRLPRPRPRPLFNPRP", "shrunken log2 fold change": -0.605}
{"sequence": "RRIRNRPPRLPRPRPRPEVQPRP", "shrunken log2 fold change": 0.0358}
{"sequence": "RRIRCRPPRLPRPRPRPGGIPRP", "shrunken log2 fold change": -0.329}
{"sequence": "RRIRMRPPRLPRPRPRPQKFPRP", "shrunken log2 fold change": -0.000921}
{"sequence": "RRIRMRPPRLPRPRPRPCMIPRP", "shrunken log2 fold change": -0.0212}
{"sequence": "RRIRSRPPRLPRPRPRPQNMPRP", "shrunken log2 fold change": -0.268}
{"sequence": "RRIRGRPPRLPRPRPRPSPEPRP", "shrunken log2 fold change": 0.498}
{"sequence": "RRIRGRPPRLPRPRPRPTKPPRP", "shrunken log2 fold change": 0.0691}
{"sequence": "RRIRGRPPRLPRPRPRPWNHPRP", "shrunken log2 fold change": -0.052}
{"sequence": "RRIRPRPPRLPRPRPRPLSKPRP", "shrunken log2 fold change": 0.14}
{"sequence": "RRIRWRPPRLPRPRPRPYPYPRP", "shrunken log2 fold change": 0.0754}
{"sequence": "RRIRKRPPRLPRPRPRPSACPRP", "shrunken log2 fold change": -0.0843}
{"sequence": "RRIRHRPPRLPRPRPRPFIPPRP", "shrunken log2 fold change": 0.0413}
{"sequence": "RRIRPRPPRLPRPRPRPYWEPRP", "shrunken log2 fold change": -0.0429}
{"sequence": "RRIRYRPPRLPRPRPRPACKPRP", "shrunken log2 fold change": -0.0277}
{"sequence": "RRIRCRPPRLPRPRPRPFRGPRP", "shrunken log2 fold change": -0.151}
{"sequence": "RRIRIRPPRLPRPRPRPYDYPRP", "shrunken log2 fold change": -0.0343}
{"sequence": "RRIRGRPPRLPRPRPRPEHEPRP", "shrunken log2 fold change": 0.176}
{"sequence": "RRIRHRPPRLPRPRPRPELTPRP", "shrunken log2 fold change": 0.054}
{"sequence": "RRIRQRPPRLPRPRPRPSGIPRP", "shrunken log2 fold change": 0.144}
{"sequence": "RRIRSRPPRLPRPRPRPVYRPRP", "shrunken log2 fold change": -0.398}
{"sequence": "RRIRPRPPRLPRPRPRPGDRPRP", "shrunken log2 fold change": 0.0494}
{"sequence": "RRIRHRPPRLPRPRPRPLPLPRP", "shrunken log2 fold change": 0.0701}
{"sequence": "RRIRWRPPRLPRPRPRPSCIPRP", "shrunken log2 fold change": -0.261}
{"sequence": "RRIRRRPPRLPRPRPRPDTCPRP", "shrunken log2 fold change": 0.133}
{"sequence": "RRIRYRPPRLPRPRPRPPACPRP", "shrunken log2 fold change": -0.146}
{"sequence": "RRIRRRPPRLPRPRPRPWANPRP", "shrunken log2 fold change": 0.0142}
{"sequence": "RRIRPRPPRLPRPRPRPDYAPRP", "shrunken log2 fold change": 0.0585}
{"sequence": "RRIRKRPPRLPRPRPRPPLWPRP", "shrunken log2 fold change": 0.931}
{"sequence": "RRIRRRPPRLPRPRPRPHYVPRP", "shrunken log2 fold change": -0.13}
{"sequence": "RRIRDRPPRLPRPRPRPRSIPRP", "shrunken log2 fold change": -0.0279}
{"sequence": "RRIRGRPPRLPRPRPRPVHRPRP", "shrunken log2 fold change": -0.0492}
{"sequence": "RRIRIRPPRLPRPRPRPYFHPRP", "shrunken log2 fold change": -0.835}
{"sequence": "RRIRDRPPRLPRPRPRPLGGPRP", "shrunken log2 fold change": 0.461}
{"sequence": "RRIRRRPPRLPRPRPRPKESPRP", "shrunken log2 fold change": 0.023}
{"sequence": "RRIRYRPPRLPRPRPRPHMIPRP", "shrunken log2 fold change": -0.734}
{"sequence": "RRIRNRPPRLPRPRPRPIDRPRP", "shrunken log2 fold change": 0.00281}
{"sequence": "RRIRPRPPRLPRPRPRPFIGPRP", "shrunken log2 fold change": 0.108}
{"sequence": "RRIRMRPPRLPRPRPRPKRYPRP", "shrunken log2 fold change": 0.407}
{"sequence": "RRIRERPPRLPRPRPRPCHGPRP", "shrunken log2 fold change": -0.989}
{"sequence": "RRIRNRPPRLPRPRPRPTWAPRP", "shrunken log2 fold change": 0.374}
{"sequence": "RRIRGRPPRLPRPRPRPKYGPRP", "shrunken log2 fold change": -0.111}
{"sequence": "RRIRLRPPRLPRPRPRPCHFPRP", "shrunken log2 fold change": -0.285}
{"sequence": "RRIRSRPPRLPRPRPRPGAGPRP", "shrunken log2 fold change": 0.445}
{"sequence": "RRIRRRPPRLPRPRPRPCPTPRP", "shrunken log2 fold change": 0.288}
{"sequence": "RRIRKRPPRLPRPRPRPGEWPRP", "shrunken log2 fold change": -0.0202}
{"sequence": "RRIRGRPPRLPRPRPRPQRQPRP", "shrunken log2 fold change": 0.687}
{"sequence": "RRIRGRPPRLPRPRPRPTQDPRP", "shrunken log2 fold change": 1.34}
{"sequence": "RRIRGRPPRLPRPRPRPQGQPRP", "shrunken log2 fold change": 0.414}
{"sequence": "RRIRKRPPRLPRPRPRPISHPRP", "shrunken log2 fold change": 0.17}
{"sequence": "RRIRMRPPRLPRPRPRPMSFPRP", "shrunken log2 fold change": -0.0179}
{"sequence": "RRIRCRPPRLPRPRPRPLAQPRP", "shrunken log2 fold change": 0.103}
{"sequence": "RRIRVRPPRLPRPRPRPTPVPRP", "shrunken log2 fold change": 0.465}
{"sequence": "RRIRRRPPRLPRPRPRPHKEPRP", "shrunken log2 fold change": 0.0317}
{"sequence": "RRIRWRPPRLPRPRPRPELPPRP", "shrunken log2 fold change": 0.243}
{"sequence": "RRIRPRPPRLPRPRPRPEVDPRP", "shrunken log2 fold change": 0.155}
{"sequence": "RRIRDRPPRLPRPRPRPWNYPRP", "shrunken log2 fold change": -0.0121}
{"sequence": "RRIRIRPPRLPRPRPRPGMAPRP", "shrunken log2 fold change": 0.006}
{"sequence": "RRIRMRPPRLPRPRPRPNYFPRP", "shrunken log2 fold change": 0.0511}
{"sequence": "RRIRTRPPRLPRPRPRPPQKPRP", "shrunken log2 fold change": 0.0412}
{"sequence": "RRIRFRPPRLPRPRPRPLLLPRP", "shrunken log2 fold change": -0.443}
{"sequence": "RRIRGRPPRLPRPRPRPMNFPRP", "shrunken log2 fold change": -0.0655}
{"sequence": "RRIRLRPPRLPRPRPRPYTRPRP", "shrunken log2 fold change": -0.0648}
{"sequence": "RRIRERPPRLPRPRPRPCGNPRP", "shrunken log2 fold change": -0.00264}
{"sequence": "RRIRNRPPRLPRPRPRPRCAPRP", "shrunken log2 fold change": 0.708}
{"sequence": "RRIRVRPPRLPRPRPRPFERPRP", "shrunken log2 fold change": 0.0254}
{"sequence": "RRIRHRPPRLPRPRPRPRIKPRP", "shrunken log2 fold change": -0.0701}
{"sequence": "RRIRYRPPRLPRPRPRPACFPRP", "shrunken log2 fold change": -0.166}
{"sequence": "RRIRERPPRLPRPRPRPTNIPRP", "shrunken log2 fold change": -0.905}
{"sequence": "RRIRYRPPRLPRPRPRPNSNPRP", "shrunken log2 fold change": -1.47}
{"sequence": "RRIRRRPPRLPRPRPRPEPLPRP", "shrunken log2 fold change": 0.137}
{"sequence": "RRIRHRPPRLPRPRPRPEWDPRP", "shrunken log2 fold change": 0.00396}
{"sequence": "RRIRRRPPRLPRPRPRPFKQPRP", "shrunken log2 fold change": -0.182}
{"sequence": "RRIRWRPPRLPRPRPRPGHSPRP", "shrunken log2 fold change": 0.0135}
{"sequence": "RRIRQRPPRLPRPRPRPIQEPRP", "shrunken log2 fold change": -0.142}
{"sequence": "RRIRMRPPRLPRPRPRPVQYPRP", "shrunken log2 fold change": 0.0273}
{"sequence": "RRIRARPPRLPRPRPRPPSIPRP", "shrunken log2 fold change": -0.108}
{"sequence": "RRIRIRPPRLPRPRPRPYKCPRP", "shrunken log2 fold change": -0.199}
{"sequence": "RRIRWRPPRLPRPRPRPHIEPRP", "shrunken log2 fold change": 0.0376}
{"sequence": "RRIRCRPPRLPRPRPRPETHPRP", "shrunken log2 fold change": 0.0444}
{"sequence": "RRIRRRPPRLPRPRPRPLIDPRP", "shrunken log2 fold change": 0.192}
{"sequence": "RRIRMRPPRLPRPRPRPEAKPRP", "shrunken log2 fold change": 2.72}
{"sequence": "RRIRQRPPRLPRPRPRPGCVPRP", "shrunken log2 fold change": 0.269}
{"sequence": "RRIRQRPPRLPRPRPRPMHHPRP", "shrunken log2 fold change": -0.288}
{"sequence": "RRIRARPPRLPRPRPRPMTKPRP", "shrunken log2 fold change": 0.248}
{"sequence": "RRIRTRPPRLPRPRPRPVEVPRP", "shrunken log2 fold change": -0.0848}
{"sequence": "RRIRARPPRLPRPRPRPHMMPRP", "shrunken log2 fold change": -0.12}
{"sequence": "RRIRIRPPRLPRPRPRPHVQPRP", "shrunken log2 fold change": -0.131}
{"sequence": "RRIRNRPPRLPRPRPRPIMTPRP", "shrunken log2 fold change": -0.269}
{"sequence": "RRIRDRPPRLPRPRPRPHKQPRP", "shrunken log2 fold change": 0.00319}
{"sequence": "RRIRKRPPRLPRPRPRPHILPRP", "shrunken log2 fold change": 0.0523}
{"sequence": "RRIRERPPRLPRPRPRPLEVPRP", "shrunken log2 fold change": -0.166}
{"sequence": "RRIRHRPPRLPRPRPRPPEHPRP", "shrunken log2 fold change": -0.116}
{"sequence": "RRIRYRPPRLPRPRPRPCYYPRP", "shrunken log2 fold change": -1.03}
{"sequence": "RRIRFRPPRLPRPRPRPTDHPRP", "shrunken log2 fold change": -0.323}
{"sequence": "RRIRPRPPRLPRPRPRPDTVPRP", "shrunken log2 fold change": -0.207}
{"sequence": "RRIRDRPPRLPRPRPRPYVVPRP", "shrunken log2 fold change": -0.159}
{"sequence": "RRIRCRPPRLPRPRPRPCWDPRP", "shrunken log2 fold change": -0.294}
{"sequence": "RRIRGRPPRLPRPRPRPSQPPRP", "shrunken log2 fold change": 0.138}
{"sequence": "RRIRQRPPRLPRPRPRPSYEPRP", "shrunken log2 fold change": 0.0509}
